Test: soluble on expression in E. coli; label from the status in PepcDB or PDB records

Sequence | soluble on expression in E. coli
MGSDKIHHHHHHMIDVAIIGGGHNGLVTAAYLAKAGLKVAVFERREIVGGASVTEELWPSIKVSTGAYVLSLLRPKIIEELKLREFGLKVYLKDPGLFLPFENGKKLYIWSSLEKTKKEIEKFSKNDAKNYKKWVKFWDLFAEMADFFMLNPPPHIDEASNLINIFRGNVNEELALSFLRTFMQDAKSLLDEYFETDEVKSALAEDSVVGTFASPSTPGTAYVLAHHVIGEVNGVKGAWGYVEGGMGEVTQALKRSAEHLGVEIYTNAEVDEVLVKNGRVEGIKLKNGKTINAKIIVSNADPKTTFFKLLRNAELEEDFLRRVRALKNVGVSFKIVGYLEELPDFGNGKSLSPEHIASELIMPNMEYIEKAYDDARALGYSREPWLSINIQSSVDPTVAPPGKFSFSIFGQYLVYDSKRNDEMKEKIAEITFEKIKEFAPNFKPIKYEVLTPLDIERRFGINGGNIFHLDMTPDQLYFFRPLIGYSDYTTPIRGLYLCGSGTHPGGGVTGAPGYNAHVKILEDLRKGIYK | not soluble
MAHHHHHHMCLVKLYKRCFVRVPPHCVTVVYETRRNSILASSMEEANNELPQVSHFRPLMYIVSLLLYRSKKLVIVPPTSFFSTFTLPCSVLDESGDGEVVDCTVEDIHVTDGSVRMVMTIRYCIPINELERYLAAVGPTAPNERIALAAAGAARARGAELSVGLIINKSKRDTAFLEPFRAHLSSKLMSESCVKVLDVVVEAAEIADRSLGG | not soluble
MAFEATKREWCELYTFFRLLTEGKVTLGTAKAKKGEIDWPIAMIQREEHDGTRCYYIEKEMVRIKGENSEKFVPREDFGIVADLILQAVKSSSEDEVTSPDGVEEFLDEVAIFDLEAKTEDRTDFYIAFWHPEAPLSGFSVRSRLGAMNPLLDGGRAANLKLEQSGVKFATPTVNKINALPEAPNEVAERMLLIERLGGVLKYSDVADRVFRSNLLMIDLHFPRVLTEMVRIMHLDDITRISELTEVIKQMNPLKIKDELVNKHGFYEFKVKQFLMALALGMRPAKIYTGQDSAVEGILLMDGSGEVLCYHKSEKPVMEDFLFLNTRLEKGSLDKDKYGFLERENGTYYFKLNAKIGLVKR | not soluble
DAQTRRRERRAEKQAQWKAANPLLVGVSAKPVNRP | soluble
MGSDKIHHHHHHMNRTQLSQLAVLSAVAAHGSFRGAAKELGIAPSAVSHAVGSLEASLGVRLLARTTRSVAATEEGKRLLERLRPALDDIAEALQRAAEARDRPAGKLRITAPRFAADLILAPRLGDFLGRYPDTVLEIANEDGFTNIVEEGYDAGIRLGESLEADMVAVKVGPELKSAVVAAPSYFERFQRPRHPRDLAGHRCIRRRFSNGTIYRWEFEKEGEELTVSVNGPLILGEDRPIIEAATGGAGLAYLFEPRVSGYVAEGKLVRVLEDWCAPYAGPFLYYPTRRLMRPALRAFIDFFRHSG | not soluble
MSLDRGVQWVLMGAPGAWRHVFAERLSKLLEVPHISMGSLVRQELNPRSSLYKEIASAVNERKLVPKSVVFALLSKRLEEGYARGETGFILHGIPRTRFQAETLDQIAQIDLVVNLKCSEDHLVNRNETALPQQEFLGSMLHSPVAINARRESVGVYAQEVEEYYRKQRKLLDFHVGGATSADTWQGLLAALHLKQVNLTTSQKLTEGHHHHHH | not soluble
MSLEQPGFKLRAVTIHFEASADVDSIEDAVFKAKEAIDRLTAEKGVEVWSLRAVLTPGESVADSLGRVAELEPLVEEEGVFINLGLHNASADDWEAVSGIVESGFFLSFALENGTWEEARSYSKLLHRLADKSPDLAVHIGFNPLGTHILTPYFPLATSPGEQRTVTVALLYPRYLLESFRKGGLQAVIDSMVDAAQLSGEYGKAVAKDVEGSFAGVDLSISPWMEESSLALVEEVGGVRLPEPGFAYGLRLVNEAIAAAASKTGYAVGFNEVQLPVAEDSKLKVRVAELETSARDLLRLSGVCLAGLDMAVIPASLDGVAGLLLEARAYSRAKGSIVGVRLIPLDGVEPGDEVFLKRFGEVPVIPIEGHHHHHH | not soluble
MEDTIPAMPQWDKIIYNVLHGSTMKGITSLKKTSVWNEATPVCRESNREAIRRRFTRGLLGRLLQRTPLESCTPVFLPAAQSWPTLEMVPAGALLPGLSEGGEGAKNGSVTTGFFEFTESLPAVGLQRVLPVLPKSAWA | not soluble
EERNDWHFNIGAMYEIENVEGYGEDMDGLAEPSVYFNAANGPWRIALAYYQEGPVDYSAGKRGTWFDRPELEVHYQFLENDDFSFGLTGGFRNYGYHYVDEPGKDTANMQRWKIAPDWDVKLTDDLRFNGWLSMYKFANDLNTTGYADTRVETETGLQYTFNETVALRVNYYLERGFNMDDSRNNGEFSTQEIRAYLPLTLGNHSVTPYTRIGLDRWSNWDWQDDIEREGHDFNRVGLFYGYDFQNGLSVSLEYAFEWQDHDEGDSDKFHYAGVGVNYSFHHHHHH | soluble
EAGMAAITAATAGNMQSQINYTRSNEKEADRFGIATLAKAGFDVQAMPRFFGRLADEYRYASKPPPMLLTHPLPEDRVADSRQRAQAYPPMRIAPSIDYHLARARIVARYAGIDGQAALGWFERTQKKASADIMPSFDYGRALVHLDNKRLSQAEPILKKLLAQDPGNPFYLDAMTDLYIEKKQPQKAVELLNSALKRNPQNKVLTINYANALLEANQNDQAVRTLQRYTHDNPEDSNGWQLLSKGYHALGRSDEELAARAEILALRANWNKAIQYYSEASKMAELGSLEQARYDARIDQLMIQRDRFMALQ | not soluble
MGSDKIHHHHHHMKRVERVIITCAVTGSIHTPSMSPYLPVTPEQIAADSVAAAQAGAAMLHLHARNPRTGRPEQTPERFMEFLPRIREQCGAILNITTGGGLGMTLEERLAPAIAARPEVASMNMGSLNFNISGAAGKIRQFQHEWEKPYLEGTNDFILSNTFSQIEHGMRVLGESGTRFEFECYDVGHLYNLAHFVDRGLVKPPFFVQCIFGILGGIGADPENLLHMRAIADRLFGADYLLSVLAAGRHQMPFVSLSAILGGSVRVGLEDSLFIARHQLARSNAEQVAKIRRIVEELGLTVATADEARAMLATKGGDNVGF | not soluble
HMSNFTGLKVLVMDENGVSRMVTKGLLVHLGCEVTTVSSNEECLRVVSHEHKVVFMDVCMPGVENYQIALRIHEKFTKQRHQRPLLVALSGNTDKSTKEKCMSFGLDGVLLKPVSLDNIRDVLSDLLEPRVLYEGM | soluble
MGSDKIHHHHHHMKVLVTGHRGYIGAVLTPMLHQRDHDVTGLDSDIFRSCTFEGTLDDTPTMEEDVRDIVIDDLAGFDAVIHLAGLSNDPLGDYRPNLTQQINCEASVTLARLAKRAGVPRFLFASSCSNYGAAGSGFLTESAAFNPVTPYGISKVEVEHAVAPMADECFSPTFLRASTAYGLSPRIRFDLVLNNLTAWAFTTGQIYLKSDGSPWRPIVHVEDIARAYIAALEADRELVHNQAFNVGLTTENYQVREIADIVQAIVPNSRIEFAADAGPDTRCYRVDCNYIGRRLHAFKPQWTARRGVEQLYEAFCSVGLSLEDFEGERFKRIAHVKKLIRNGELDEDLRRVSVPTMALAV | not soluble
MGSDKIHHHHHHMSFDPFGDFETTGYLRNSLGLKDPAEVKENEHFSFEMGLDEALSYLERTKNLNYQALLQVHRLLFEKFYPWAGRDRLELVPHLSVWKGPKGAPRRTFFESPAMIERAVDYALSLASKKQGFMQKPGEVMGLLCFAHPFLDGNGRSILLFYMELSYRAGFAIDWASTRKDDYLQALDDEIHNPGKGHLDRYLVPFVVPIHSRDQWPEIIGQINGLDGMDGENITYENLDDPEVQKVYAAYHAEHPYPAKDGTPDSEP | not soluble
MAGGGAGDPGLGAAAAPAPETREHLFKVLVIGELGVGKTSIIKRYVHQLFSQHYRATIGVDFALKVLNWDSRTLVRLQLWDIAGQERFGNMTRVYYKEAVGAFVVFDISRSSTFEAVLKWKSDLDSKVHLPNGSPIPAVLLANKCDQNKDSSQSPSQVDQFCKEHGFAGWFETSAKDNINIEEAARFLVEKILVNHQSFPNEENDVDKIKLDQETLRAENKSQCCLEHHHHHH | not soluble
MNTGHHKVADTLIDFLHRQFPWVESKKIDFLSYCNELMEKMVSGAYLRWIRSHPASYHRVYKTFMYEESLRLEFVSFEPWLPYFEGKMKKMLEQERPDLIVCTHSFPSRILQQLKRKKVLAIPVVNVYTDFFMNSIWGKRFIDYHFVPHQEAKRELIVKHGIDERRIVVTGIPVHDTFMKAAALEHHHHHH | not soluble
MSLKIKICGLSTKEAVDTAVESGVTHLGFILSPSKRQVAPEKILQITNDVPKTVKKVGVFVDEPIDFVKKAIQVAQLDLVQLHGNEDMNYINQLDISVIKAIRPDQEFKEYEDVILLFDSPQAGSGQAFDWDSLVTSGLKNKFFIAGGLNPENVAAAIQHFPNAYGVDVSSGVETDGIKNLTKIKNFVQNASLASSKQLFIEFLRITKKLNENKIIPYLMGSLAVEQIINFPTNPDDIDIQLKTSDFENFEQLTSLMEKLGYQLIDLHEHKFEKASIHVGFASVETLKNYAGVDYLTIQQERMENGEKYHLPNVEQSLKIYEAAKRDEWRGGKQKDSFIFDELIKEQKRNDNEGHHHHHH | soluble
MAHHHHHHMGTLEAQTQGPGSMVTAEAIDQRTFRRVLGQFCTGVTIITTVHEGNPVGFACQSFAALSLDPPLVLFCPTKVSRSWKAIEASGRFCVNILHEKQQHVSARFGSREPDKFAGIDWRPSDLGSPIIDGSLAHIDCTVHDVHDGGDHFVVFGKVHGLSEVPERKPRPLLFYRGEYTGIEPEKNTPAQWRDDLEAFLTATTADTWL | soluble
MKTIVVLGAGYAGLKTVVALQKKLRKEVRIILIDRNPYHYETMRLYEVASGSAPYTRMSYELADVLDKNMNELVVDQVEKIDLKNKTVELTKHKPISYDYCVVGLGFVLSSMGIAGAQENALPMSNVKQAQAIRDHIESEMRAYVKDHDSQHLSIVICGAGFQAIELAGALAQARPCFAQTAGTDPEKITIKMIDGSPRLLPMFQGKLLDYAINLSALEHHHHHH | not soluble
MSYRKKLTSPEDAVGLIRSGMRVFVSGNAATPTPLLKALAARKDELENVELVHLLQMGEDPFASLEMEGHFRRRSLFVGPADREAVNQGRADYVPVMLHQVPWLFKRGILPLDAAIVQVSPPDEHGFCSLGVEVIATKAAVEAAPIVIAMVNPRMPRTLGDTFVHVSRFTAIVEVDWPLPELKREGFGEVERRIGEHVAGLIEDGATLQMGIGAIPDAVLASLEGRRDLGVHTEMISDGVLEAWEKGLITGAKKSLHPGKIVGTFVLGSERLYRFVHDNPLFELHPADYVNDPFVIAQNRKMVAINSAIEVDLTGQVVADSIGTRIYSGFGGQLDFIRGAARSEGGKPIIALPSTAKGQSRIVPFLKPGAGVVTTRADVHYVVTEWGVAELFGRSLRERAKALIAIAHPDFREALLQGAWERGLLPRGYPGVDLKGLEEKRGRP | soluble
MSTLLKSAKSIVPLMDRVLVQRIKAQAKTASGLYLPEKNVEKLNQAEVVAVGPGFTDANGNKVVPQVKVGDQVLIPQFGGSTIKLGNDDEVILFRDAEILAKIAKD | not soluble
SPPENRGEHETGRTLHIATYNIHKGLSFFNQRLILHELRDQLHGLDVDVVFLQEVVGEHALHATRFRDWPRNTQYEFLADSMWPDFAYGKNAVYGHGHHGNAILSRFSIVNWENEDISAHRFESRGLLHCELAIPGWKDTLHCICVHLGLFRRGRSQQLEAIEKRIRQLVSPDAPLVVAGDFNDWRGAANPLLASRLNLVEVFQHTHGKAARSFPSVLPLLRLDRIYIRGFQVKNAQILHNRPWSRISDHAVLSANIMRT | not soluble

Source: the DeepSol protein solubility set
